In the supplement of paper PMC10899765:

Tests used:
Details in all cases: 20 nM; 72 h
MCF10A [1] = experiment: percent viability (nuclei count relative to siNT); higher = more viable cells
Protocol: (§1)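 After 72 h, cells were fixed and stained with Hoechst and anti-fibrillarin, and nucleoli per nucleus were counted with CellProfiler. Values are plate-adjusted percent effect for the one-nucleolus and 5+ nucleoli phenotypes, normalised to siNT (0%) and to the positive controls siNOL11 or siKIF11 (100%), as the mean of biological triplicates. Percent viability is the nuclei count relative to siNT.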

MCF10A [2] = experiment: one-nucleolus phenotype percent effect (relative to siNT 0% and siNOL11 100%); higher = more cells with one nucleolus (ribosome biogenesis inhibition)
Protocol: as §1

MCF10A [3] = experiment: 5+ nucleoli phenotype percent effect (relative to siNT 0% and siKIF11 100%); higher = more cells with five or more nucleoli
Protocol: as §1

Sequence | percent viability (MCF10A [1]) [%] | one-nucleolus phenotype percent effect (MCF10A [2]) [%] | 5+ nucleoli phenotype percent effect (MCF10A [3]) [%]
GGCUCAAUCUCUGGUCCUGCAGCC [hsa-miR-7158-5p] | 132 | -21.5 | 25.6
GGCUCAUGUGUCUGUCCUCUUC [hsa-miR-6847-3p] | 44.2 | -18 | 1.91
GGCUCCUUGGUCUAGGGGUA [hsa-miR-4448] | 45.2 | -9.36 | 20.5
GGCUGAGUGGGGUUCUGACUCC [hsa-miR-8077] | 31.9 | -3.93 | -6.36
GGCUGGAGCGAGUGCAGUGGUG [hsa-miR-3135b] | 43.2 | 9.78 | -9.26
GGCUGGUCAGAUGGGAGUG [hsa-miR-6131] | 71 | -3.05 | 1.34
GGCUUGCAUGGGGGACUGG [hsa-miR-4327] | 40.2 | 12.4 | 7.45
GGCUUUCUAGUCUCAGCUCUCC [hsa-miR-3160-5p] | 110 | -16.4 | 38.5
GGGAAAAGGAAGGGGGAGGA [hsa-miR-6124] | 180 | -29.7 | 53.1
GGGAAGAGCUGUACGGCCUUC [hsa-miR-6077] | 37.4 | 32.5 | -35.5
GGGACCAUCCUGCCUGCUGUGG [hsa-miR-3619-3p] | 44.4 | -10.4 | 20.9
GGGACCCAGGGAGAGACGUAAG [hsa-miR-711] | 80.1 | -15.3 | 30.4
GGGACUAGGAUGCAGACCUCC [hsa-miR-6503-3p] | 49.8 | 9.94 | -6.73
GGGAGAAGGGUCGGGGC [hsa-miR-4516] | 94.1 | -25.4 | 31.9
GGGAGCCAGGAAGUAUUGAUGU [hsa-miR-505-5p] | 68.7 | 10.3 | 1.85
GGGAGGUGUGAUCUCACACUCG [hsa-miR-3689d] | 9.66 | 24.8 | 10.8
GGGAGUCUACAGCAGGG [hsa-miR-4294] | 37.7 | 24 | -26.3
GGGAGUGCAGGGCAGGGUUUC [hsa-miR-504-3p] | 36 | 14.7 | -22.6
GGGAUAUGAAGAAAAAU [hsa-miR-3201] | 59.6 | -15.6 | 40.5
GGGAUGGUAGACCGGUGACGUGC [hsa-miR-1193] | 24.3 | 19.2 | -23

Sequence | percent viability (MCF10A [1]) [%] | one-nucleolus phenotype percent effect (MCF10A [2]) [%] | 5+ nucleoli phenotype percent effect (MCF10A [3]) [%]
GGGAUUCUGUAGCUUCCU [hsa-miR-4320] | 28.6 | 50 | -18.6
GGGCCUCUCUUGUCAUCCUGCAG [hsa-miR-6744-3p] | 81.6 | -21.1 | 49.2
GGGCGACAAAGCAAGACUCUUUCUU [hsa-miR-1273a] | 78.8 | 6.41 | -17.3
GGGCGCCUGUGAUCCCAAC [hsa-miR-566] | 81.2 | -9.02 | 39.3
GGGCUAGGGCCUGCUGCCCCC [hsa-miR-6069] | 54.3 | -4.55 | 21.6
GGGCUCACAUCACCCCAU [hsa-miR-4284] | 40.5 | -1.42 | 8.32
GGGCUGGGGCGCGGGGAGGU [hsa-miR-5787] | 150 | -30.8 | 60.6
GGGGAAAGCGAGUAGGGACAUUU [hsa-miR-3153] | 55.6 | -1 | 13.5
GGGGAACUGUAGAUGAAAAGGC [hsa-miR-8059] | 101 | -28.4 | 34.6
GGGGAGCGAGGGGCGGGGC [hsa-miR-6090] | 164 | -21.8 | 36.1
GGGGAGCUGUGGAAGCAGUA [hsa-miR-920] | 53.2 | -6.81 | 23.5
GGGGAGGUGUGCAGGGCUGG [hsa-miR-6799-5p] | 93.2 | -29.7 | 37
GGGGCCUGGCGGUGGGCGG [hsa-miR-2861] | 80.1 | -37.2 | 87.4
GGGGCGCGGCCGGAUCG [hsa-miR-3178] | 93.3 | -32.2 | 51.5
GGGGCUGGGCGCGCGCC [hsa-miR-4492] | 33.5 | 24.8 | -0.324
GGGGCUGGGGCCGGGGCCGAGC [hsa-miR-762] | 59.8 | -31.4 | 53.9
GGGGCUGUGAUUGACCAGCAGG [hsa-miR-4675] | 24.1 | 10.5 | -11.5
GGGGGAAGAAAAGGUGGGG [hsa-miR-4271] | 72.2 | -5.03 | 20.1
GGGGGCCGAUACACUGUACGAGA [hsa-miR-128-2-5p] | 91.1 | -25.2 | 34.6
GGGGGGAUGUGCAUGCUGGUU [hsa-miR-4525] | 26.2 | 22.7 | -7.81

Sequence | percent viability (MCF10A [1]) [%] | one-nucleolus phenotype percent effect (MCF10A [2]) [%] | 5+ nucleoli phenotype percent effect (MCF10A [3]) [%]
GGGGGGGCAGGAGGGGCUCAGGG [hsa-miR-328-5p] | 129 | -28.4 | 33.9
GGGGGGGGGGGGGGGGGGCCG [hsa-miR-1234-5p] | 78.1 | -31.5 | 65.1
GGGGGGUGUGGAGCCAGGGGGC [hsa-miR-6752-5p] | 79.1 | -21.9 | 41.7
GGGGGUCCCCGGUGCUCGGAUC [hsa-miR-615-5p] | 137 | -20 | 33.1
GGGGUAUUGUUUCCGCUGCCAGG [hsa-miR-503-3p] | 40.1 | 39 | -25.1
GGGGUGGUCUGUUGUUG [hsa-miR-4483] | 5.44 | -25.2 | 44.6
GGGGUUCCUGGGGAUGGGAUUU [hsa-miR-23a-5p] | 103 | -14 | 40.3
GGGUCCCGGGGAGGGGGG [hsa-miR-4281] | 100 | -17.2 | 25.6
GGGUGAGGGCAGGUGGUU [hsa-miR-4710] | 19.2 | 17.1 | 22.2
GGGUGCGGGCCGGCGGGG [hsa-miR-4466] | 51.3 | -13.2 | 12.7
GGGUGGGGAUUUGUUGCAUUAC [hsa-miR-92a-2-5p] | 42.2 | 28.3 | -28.2
GGGUUUGUAGCUUUGCUGGCAUG [hsa-miR-5087] | 26.6 | 4.68 | 6.11
GGUAGAUUUUCCUUCUAUGGU [hsa-miR-376a-2-5p] | 71.5 | -26.7 | 62
GGUAGUGAGUUAUCAGCUAC [hsa-miR-6073] | 71 | 2.63 | 18.3
GGUAUCCGUUUGGGGAUGGU [hsa-miR-3713] | 23.5 | 11.4 | -27.6
GGUCCAGAGGGGAGAUAGGUUC [hsa-miR-198] | 51.6 | -9.26 | 5.19
GGUCGUAUGUGUGACGCCAUUU [hsa-miR-489-5p] | 63 | -3.74 | -3.91
GGUCUAGGCCCGGUGAGAGACUC [hsa-miR-8078] | 21 | -3.5 | 10
GGUGAGGCUAGCUGGUG [hsa-miR-4316] | 41.7 | 13.5 | -8.12
GGUGCAGUGCUGCAUCUCUGGU [hsa-miR-143-5p] | 89.5 | -7.79 | -0.693
